Bridge positions count the residues as written; N and C are the ends. Ends that are not written are not given here.
T1: IL-5RαECD, extracellular domain (ECD) of the human IL-5 receptor α chain, soluble (human) (UniProt Q01344)
T1 sequence (Q01344 whole entry, looked up): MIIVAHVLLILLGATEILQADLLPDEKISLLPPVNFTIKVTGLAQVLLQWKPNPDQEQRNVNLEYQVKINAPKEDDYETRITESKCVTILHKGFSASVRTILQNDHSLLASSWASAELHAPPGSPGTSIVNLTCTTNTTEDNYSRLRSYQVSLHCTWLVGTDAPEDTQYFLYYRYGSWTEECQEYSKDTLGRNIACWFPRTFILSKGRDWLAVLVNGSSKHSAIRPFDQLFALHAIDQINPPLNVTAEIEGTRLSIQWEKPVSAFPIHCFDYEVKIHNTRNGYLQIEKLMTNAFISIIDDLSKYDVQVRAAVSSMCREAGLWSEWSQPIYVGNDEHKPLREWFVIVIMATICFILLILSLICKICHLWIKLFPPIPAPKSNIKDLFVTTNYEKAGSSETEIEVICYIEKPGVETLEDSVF


Assays:
[1] = biological target: T1, IL-5RαECD, extracellular domain (ECD) of the human IL-5 receptor α chain, soluble (human); assay: scintillation proximity competition assay, dimer against 20 pM [125I] IL-5 on IL-5Rα coated beads
[2] = biological target: T1, IL-5RαECD, extracellular domain (ECD) of the human IL-5 receptor α chain, soluble (human); assay: competition with [125I] IL-5 for binding to immobilised IL-5Rα ECD; peptide after 10 days, disulfide-linked dimer

Row | SPA pIC50 [1] | IC50 [2] | Binder
1 | 6.4 | – | H-EGYVCVEFARCPTCR-NH2 (disulfide (positions not given here); also: dimer, intramolecular and intermolecular disulfides, places not given here)
2 | – | 0.55 nM | TGGGDGYVCVEWARCPTCK (disulfide 15-18; also: homodimer linked by a Cys9-Cys9 interchain disulfide, disulfide at 9, other end not in the chain) [dimeric form of AF17362 (spontaneously formed disulfide-linked dimer)]
3 | 8.1 | – | H-EGYVCVEWARCPTCR-NH2 (disulfide (positions not given here); also: dimer, intramolecular and intermolecular disulfide linkages, places not given here)
